Assay results reported in article PMC7515726.

What was measured:
Experiment in all cases: affinity purification with mass spectrometry
[1] = biological target: Nuc3, disk patch 3 mutant nucleosome (hH3.2x10, hH4x24, hH2B.Cx9), biotinylated 185 bp 601 DNA (human) (UniProt P20671)
[2] = biological target: Nuc1, acidic patch mutant nucleosome (hH2A.Dx10), biotinylated 185 bp 601 DNA (human) (UniProt P62807)
[3] = biological target: Nuc2, disk patch 2 mutant nucleosome (hH2A.Dx2, hH2B.Cx8), biotinylated 185 bp 601 DNA (human) (UniProt Q71DI3)

Binder	fold decrease in binding vs wild-type nucleosome [1] [fold]	fold decrease in binding vs wild-type nucleosome [2] [fold]	fold decrease in binding vs wild-type nucleosome [3] [fold]
RCC1 (regulator of chromatin condensation) (natural protein) MPPKRIAKRRSPPEDAIPKSKKVKVSHRSHNTEPGLVLTLGQGDVGQLGLGESVLERKKPALVPLLQDVVQAEAGGMHTVCLSQSGQVYSFGCNDEGALGRDTSVEGSEMVPGKVELQEKVVQVSAGDSHTAALTEDGRVFLWGSFRDNNGVIGLLEPMKKSMVPVQVQLDAPVVKVASGNDHLVMLTNDGDLYTLGCGEQGQLGRVPELFANRGGRQGLGRLLVPRCVLLKSRGTRGRVRFQDAFCGAYFTFAISREGHVYGFGLSNYHQLGTPGTGSCFIPQNLTSFKNSTKSWVGFSGGQHHTVCMDSEGKAYSLGRAEYGRLGLGEGAEEKSIPTLISRLPVVSSVACGASVGYAVSKDGRVFAWGMGTNYQLGTGQDEDAWSPVEMTGKQLENRVVLTVSSGGQHTVLLVKDQAQS	2.1	22	3.1
tyrosine-protein kinase BAZ1B (enzyme) MAPLLGRKPFPLVKPLPGEEPLFTIPHTQEAFRTREEYEARLERYSERIWTCKSTGSSQLTHKEAWEEEQEVAELLKEEFPNWYEKLVLEMVHHNTASLEKLVDSAWLEIMTKYAVGEECDFEVGKEKMLKVKIVKIHPLEKVDEEAVEKKSDGACDSPSSDKENSSQMAQDLQKKETVVKEDEGRRESINDRARRSPRKLPTSLKKGERKWAPPKFLPHKYDVKLQNEDKIISNVPADSLIRTERPPNKEILRYFIRHNALRAGTGENAPWVVEDELVKKYSLPSKFSDFLLDPYKYMTLNPSTKRRNTGSPDRKPSKKPKRDSSSLSSPLNPKLWCHVHLEKSLNGPPLKVKNSKNSKSPEEHLEGVMKIMSPNNNKLHSFHIPKKGPAAKKPGKHSDKPLKAKGRGKGILNGQKSTGNSKSPSKCVKTPKTKMKQMTLLDMAKGTQKMTRTPRSSGGVPRSSGKPHKHLPPAALHLIAYYKENKDKEDKKSALSCVISKTARLLSNEDRARLPEELRALVQKRYELLEHKKRWASMSEEQRKEYLKKKRQELKERLREKAKERREREMLERLEKQKRFEDQELGGRNLPAFRLVDTPEGLPNTLFGDVALVVEFLSCYSGLLLPDAQYPITAVSLMEALSADKGGFLYLNRVLVILLQTLLQDEIAEDYGELGMKLSEIPLTLHSVSELVRLCLRRCDVQEDSEGSETDDNKDSTPFEDNEVQDEFLEKLETSEFFELTSEEKLRILTALCHRILMTYSVQDHMETRQQVSAELWKERLAVLKEENDKKRAEKQKRKEMEARNKENGKEENVLGKVDRKKEIVKIEQQVEVEADDMISAVKSRRLLSMQAKRKREIQERETKVRLEREAEEERMRKHKAAAEKAFQEGIAKAKLVLRRTPIGTDRNHNRYWLFSNEVPGLFIEKGWVHNSIDYRFKHHRKDHSNLPDDDYCPRSKKANLGKNASVNAHHGPALEAVETTVPKQGQNLWFLCDSQKELDELLSCLHPQGIRESQLKERLEKRYQEITHSIYLARKPNLGLKSCDGNQELLNFLRSDLIEVATRLQKGGLGYMEGTSEFEARVISLEKLKDFGECVIALQASVIKKFLQGFMAPKQKKRKLQSEDSTKSEEVDEEKKMVEEAKVASALEKWKTAIREAQTFSRMHVLLGMLDACIKWDMSAENARCKVCRKKGEDDKLILCDECNKAFHLFCLRPALYEVPDGEWQCPACQPPTARRNSRGRNYTEESTSEGSEGDESGEEEEEEEEEEEEEEDYEVAGLRLRPRKTIRGKQSVIPAARPGRPPGKKSHPARRSRPKDDPEVDDLVLQTKRISRRQSLELQKCEDILHKLVKYRFSWPFREPVTRDEAEDYYDVIEHPMDFQTIQNKCSCGNYRSVQEFLTDMKQVFANAELYNCRGSHVLSCMEKTEQCLLALLQKHLPGHPYVRRKRRKFPDRLADDEGDSDSESVGQSRGRRQKK		1.94	
VRK1 kinase (enzyme) MPRVKAAQAGRPGPAKRRLAEQFAAGEVLTDMSRKEWKLGLPIGQGGFGCIYLADTNSSKPVGSDAPCVVKVEPSDNGPLFTELKFYQRAAKPEQIQKWIRTHKLKYLGVPKYWGSGLHDKNGKSYRFMIMDRFGSDLQKIYEANAKRFSRKTVLQLSLRILDILEYIHEHEYVHGDIKASNLLLSHKNPDQVYLVDYGLAYRYCPDGVHKEYKEDPKRCHDGTLEFTSIDAHKGVAPSRRGDLEILGYCMIQWLSGCLPWEDNLKDPNYVRDSKIRYRDNVAALMEKCFPEKNKPGEIAKYMESVKLLEYTEKPLYQNLRDILLQGLKAIGSKDDGKLDFSAVENGSVKTRPASKKRKKEAEESAVCAVEDMECSDTQVQEAAQTRSVESQGAIHGSMSQPAAGCSSSDSSRRQQHLGLEQDMLRLDRRGSRTRKKAQK		1.61	

The next lines start with the values.

fold decrease in binding vs wild-type nucleosome [1] [fold]	fold decrease in binding vs wild-type nucleosome [2] [fold]	fold decrease in binding vs wild-type nucleosome [3] [fold]	Binder
	1.35		cohesin complex protein SMC1A (natural protein) MGFLKLIEIENFKSYKGRQIIGPFQRFTAIIGPNGSGKSNLMDAISFVLGEKTSNLRVKTLRDLIHGAPVGKPAANRAFVSMVYSEEGAEDRTFARVIVGGSSEYKINNKVVQLHEYSEELEKLGILIKARNFLVFQGAVESIAMKNPKERTALFEEISRSGELAQEYDKRKKEMVKAEEDTQFNYHRKKNIAAERKEAKQEKEEADRYQRLKDEVVRAQVQLQLFKLYHNEVEIEKLNKELASKNKEIEKDKKRMDKVEDELKEKKKELGKMMREQQQIEKEIKEKDSELNQKRPQYIKAKENTSHKIKKLEAAKKSLQNAQKHYKKRKGDMDELEKEMLSVEKARQEFEERMEEESQSQGRDLTLEENQVKKYHRLKEEASKRAATLAQELEKFNRDQKADQDRLDLEERKKVETEAKIKQKLREIEENQKRIEKLEEYITTSKQSLEEQKKLEGELTEEVEMAKRRIDEINKELNQVMEQLGDARIDRQESSRQQRKAEIMESIKRLYPGSVYGRLIDLCQPTQKKYQIAVTKVLGKNMDAIIVDSEKTGRDCIQYIKEQRGEPETFLPLDYLEVKPTDEKLRELKGAKLVIDVIRYEPPHIKKALQYACGNALVCDNVEDARRIAFGGHQRHKTVALDGTLFQKSGVISGGASDLKAKARRWDEKAVDKLKEKKERLTEELKEQMKAKRKEAELRQVQSQAHGLQMRLKYSQSDLEQTKTRHLALNLQEKSKLESELANFGPRINDIKRIIQSREREMKDLKEKMNQVEDEVFEEFCREIGVRNIREFEEEKVKRQNEIAKKRLEFENQKTRLGIQLDFEKNQLKEDQDKVHMWEQTVKKDENEIEKLKKEEQRHMKIIDETMAQLQDLKNQHLAKKSEVNDKNHEMEEIRKKLGGANKEMTHLQKEVTAIETKLEQKRSDRHNLLQACKMQDIKLPLSKGTMDDISQEEGSSQGEESVSGSQRTSSIYAREALIEIDYGDLCEDLKDAQAEEEIKQEMNTLQQKLNEQQSVLQRIAAPNMKAMEKLESVRDKFQETSDEFEAARKRAKKAKQAFEQIKKERFDRFNACFESVATNIDEIYKALSRNSSAQAFLGPENPEEPYLDGINYNCVAPGKRFRPMDNLSGGEKTVAALALLFAIHSYKPAPFFVLDEIDAALDNTNIGKVANYIKEQSTCNFQAIVISLKEEFYTKAESLIGVYPEQGDCVISKVLTFDLTKYPDANPNPNEQ
	1.69		OGT O-GlcNAc transferase (enzyme) MASSVGNVADSTEPTKRMLSFQGLAELAHREYQAGDFEAAERHCMQLWRQEPDNTGVLLLLSSIHFQCRRLDRSAHFSTLAIKQNPLLAEAYSNLGNVYKERGQLQEAIEHYRHALRLKPDFIDGYINLAAALVAAGDMEGAVQAYVSALQYNPDLYCVRSDLGNLLKALGRLEEAKACYLKAIETQPNFAVAWSNLGCVFNAQGEIWLAIHHFEKAVTLDPNFLDAYINLGNVLKEARIFDRAVAAYLRALSLSPNHAVVHGNLACVYYEQGLIDLAIDTYRRAIELQPHFPDAYCNLANALKEKGSVAEAEDCYNTALRLCPTHADSLNNLANIKREQGNIEEAVRLYRKALEVFPEFAAAHSNLASVLQQQGKLQEALMHYKEAIRISPTFADAYSNMGNTLKEMQDVQGALQCYTRAIQINPAFADAHSNLASIHKDSGNIPEAIASYRTALKLKPDFPDAYCNLAHCLQIVCDWTDYDERMKKLVSIVAEQLEKNRLPSVHPHHSMLYPLSHGFRKAIAERHGNLCLDKINVLHKPPYEHPKDLKLSDGRLRVGYVSSDFGNHPTSHLMQSIPGMHNPDKFEVFCYALSPDDGTNFRVKVMAEANHFIDLSQIPCNGKAADRIHQDGIHILVNMNGYTKGARNELFALRPAPIQAMWLGYPGTSGALFMDYIITDQETSPAEVAEQYSEKLAYMPHTFFIGDHANMFPHLKKKAVIDFKSNGHIYDNRIVLNGIDLKAFLDSLPDVKIVKMKCPDGGDNPDSSNTALNMPVIPMNTIAEAVIEMINRGQIQITINGFSISNGLATTQINNKAATGEEVPRTIIVTTRSQYGLPEDAIVYCNFNQLYKIDPSTLQMWANILKRVPNSVLWLLRFPAVGEPNIQQYAQNMGLPQNRIIFSPVAPKEEHVRRGQLADVCLDTPLCNGHTTGMDVLWAGTPMVTMPGETLASRVAASQLTCLGCLELIAKSRQEYEDIAVKLGTDLEYLKKIRGKVWKQRISSPLFNTKQYTMELERLYLQMWEHYAAGNKPDHMIKPVEVTESA
